According to article doi:10.1101/608273:

Biological target: dNxf2^UBA (recombinant) (Drosophila) (UniProt Q9VV73)
Assay: ITC

Chain of UniProt Q9VV73 (Q9VV73 whole entry): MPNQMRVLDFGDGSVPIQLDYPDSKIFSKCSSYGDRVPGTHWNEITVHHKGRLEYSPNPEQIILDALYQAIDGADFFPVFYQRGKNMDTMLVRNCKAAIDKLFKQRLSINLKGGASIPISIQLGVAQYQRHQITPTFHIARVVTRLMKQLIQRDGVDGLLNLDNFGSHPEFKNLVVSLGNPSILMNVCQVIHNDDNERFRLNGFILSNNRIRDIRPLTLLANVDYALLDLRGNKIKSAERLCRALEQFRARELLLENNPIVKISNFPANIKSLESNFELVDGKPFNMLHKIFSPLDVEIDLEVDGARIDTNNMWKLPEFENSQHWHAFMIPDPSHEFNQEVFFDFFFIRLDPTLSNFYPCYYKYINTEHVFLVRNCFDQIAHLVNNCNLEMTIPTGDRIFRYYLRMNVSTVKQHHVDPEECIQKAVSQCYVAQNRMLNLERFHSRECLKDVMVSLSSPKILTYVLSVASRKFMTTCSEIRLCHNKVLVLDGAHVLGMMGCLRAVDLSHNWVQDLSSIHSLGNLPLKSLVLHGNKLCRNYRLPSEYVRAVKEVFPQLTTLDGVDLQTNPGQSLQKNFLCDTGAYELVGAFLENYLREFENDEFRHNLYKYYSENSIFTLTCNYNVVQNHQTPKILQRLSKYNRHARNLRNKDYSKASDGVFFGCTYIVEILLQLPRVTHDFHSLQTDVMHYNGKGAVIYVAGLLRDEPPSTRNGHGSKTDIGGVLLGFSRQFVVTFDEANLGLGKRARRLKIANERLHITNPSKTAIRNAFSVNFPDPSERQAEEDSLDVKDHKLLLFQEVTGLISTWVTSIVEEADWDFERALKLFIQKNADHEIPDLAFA

Kd: 3.2 µM
Substance: Purified Panx^NIR (from UniProt Q9W2H9 315-343) (domain or fragment)
